Results published in the nanobody polyreactivity screen of Harvey et al. (2022).

Assay: yeast display, Sf9 membrane polyspecificity reagent, FACS + sequencing; frameworks hold sequencing errors
Summary of the method: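 After 36–48 hours of galactose induction, yeast (Saccharomyces cerevisiae BJ5465) displaying a synthetic nanobody library were stained at 4 °C for 1 hour with 10% biotinylated, detergent-solubilized Sf9 membrane reagent. Streptavidin microbeads enriched the stained cells before FACS sorting into low and high (top ~1%) gates on anti-HA and streptavidin fluorescence. Each clone's polyreactivity label reflects its gate of origin.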

| Sequence | polyreactivity (PSR sort gate) |
| --- | --- |
| QVQLVESGGGLFQAGGSLRLSCAASGSIFEFNAMGWYRQAPGKERELVAGITNSGSSTYYADSVKGRLTISRDHAKNTVYLQMNSLKPEDTAVFYCNARLSRWRRRPYDYWGQGTQVTVSS | high polyreactivity |
| QDQLVESGGGLVQAGGSLRIICAASGSIVVTNAMGWYRQAPGKVRELVAAMSGRADSTYADSVKGRFTISRDNAKNTVYLQMNSLKPEDTAVDYCAAKVRGWHYYYCGQGTQVTVSS | low polyreactivity |
| QVQLVESGGGLVQAGGSLRLSCAASGSLFGSYAMGWYRQAPGKEREIVASISNSGGSTYYADSVKGRFTISRDNAKNTVYLQMNSLKPEDTAVYYCAAAVYSYTYRYYYWGQGTQVTVSS | high polyreactivity |
| QVQLVESGGGLVQAGGSLRLSCAASGSTFYLYAMGLYRQAPGKERELVAAISSGGRTNYADSVKGRFTISRDNAKNTVYLQMNSLKPEDTAVYYCAARIQWPTWSLYYYWGQGTQVTVSS | high polyreactivity |
| QVQLVESGGGLVQAGASLRLSCAASASTFKGNAMGWYRQAPGKERELVAAINRSGTSTYYADSVKGRFTISRDNAKNSVYLQMNSLKPEDTAVYYCAKNYFGHRFDYWGQGTQVTVSS | high polyreactivity |
| QVQLVESGGGLVQAGGSLRLSCAASGSTFSNYAMGWYRQAPGKDRELVAGIDWSGGSTYYADSVKGRFTISRDNAKNTVYLQMNSLKPEDTAVYYSAKRVWYHGRKLRGYYWGQGTQVTVSS | low polyreactivity |
| QVQLVESGGGLVQAGGSLRLSCAASGSTFYYYARGWYRQAPGKERELVAAISTSDGSTYYADSVKGRFTISRDNAKNTVYLQMNSLKPEDTAVYYCAADSYERFASYYYWGQGTQVTVSS | low polyreactivity |
| QVQLVESGGGLVQAGGSLRLSCAASGRTFAYYAMGWYIPGPGKERELVAAISSGGSTYYADCVKGRFTISRDNAKNTVYLQMNSLIPEDTAVYYCATRDKQYYYWGQGTQVTVSS | high polyreactivity |
| QVQHVESGGGLVQAGGSLRLSCAASGFILDTYGMGWYRQAPGKERELVAAISQSDVSTYYADSVKGRFTISRDNAKNTVDLQMNSLKPEDTAVYDCAADRGGLRWFWQVLYDYWGQGTQVTVSS | low polyreactivity |
| QVQLVESGGGLVQAGGSLRLSCAASGRIFASYAMGWYRQAPGKERELVAAINSNGGSKYYADSVKGRFTISRDNAKNTVYLQMNSLKPEDTAVYYCAAGARYKMGYWGQGTQVTVSS | high polyreactivity |
| QVQLVESGGGLVQAGASLSLSCAASGFTFEDYAMGWYRQAPGKERELVAAISSRGTSTYYADSVKGRFTISRDNAKNTVYLQMNSLKREDTAVYYCNIRGWYPYGYWGQGTQVTVSS | high polyreactivity |
| QVQLVESGGGLVHAGGSLRLSCAASGSIFTVNAMGWYRQAPGKERELVAAIDGSSGSTNYADSEKGRFTISRDNAKNTVYLQMNSLKPEDTAVYYCAADWSYEYGYWGQGTQVTVSS | low polyreactivity |
| QVQLVESGGGLVQAGGSLRLSFAASGNILKSYAMGWYRQAHGKERELVAAISSSGGSTYYADSVKGRFTISRDNAKNSVYLQMNSLKPEDTAVYYCNAGAKSGKYYYWGQGTKVTVSS | low polyreactivity |
| QDQLVESGGGLVQAGGSLRLSCAASVRTCNSYAMGWYRQAPGKERELVADITSSGGSTYYADSVKGRVTISRDNAKNTVYVQMNSLKPEDTAVYYCAADGYTRLPTYLRVTHRSLDYCGQGTQVTVSS | low polyreactivity |
| QVQLVESVGGLVQAGGSLRLSCAASGSIFDWNAMGWYREAPGKERELVASIDWDGGRTYYADSVKGRFTISRDNAKNTVYLQMNSLKPEDTAVYYCAATYYYDWWRGRWSPHIMDYWGQGTQVTVSS | low polyreactivity |
| QVQLVESGGGLVQAGGILRLSCAASGRIFRPNAMGWYRQAPGKERELVAAISSGGSTYYADSVKGRFTLSRDNAKNSVYLQMNSLKPEDSAVYYCNAKASFWSPYDYWGQGTQVTVSS | high polyreactivity |
| QVQLVESGGGLVQAGGSHRLSCAASGFIFYSNAMGWYRQAPGKERELVAAITSGGSTYYADSVKGRFTISRDNAKNTVYLQMNSLKPEDTAVYYCNKARRWRGYDYWGQGTLVTVSS | high polyreactivity |
| QVQLVESGGGLVQAGGSLRLSCAASGSTFFPYAMGWYRQAPGKERELVAAIRWSGGRTYYADSVKGRFTISRDNAKNTVYLQMNSLKPEDTAVYYCAADKYLYYDYWGQGTQVTVSS | high polyreactivity |
| QVQHVESGGGLVQEGGSLRLSCGASGRTFSYYAMGCYRQPPGKEREMVAAIRATGTTTYYAVSVKGRFTISRDNAKITFYFQMNSLKQDDTAVYYCAARGSRYRSSGYEEWGQGTQVTVSS | high polyreactivity |
| RVQLQESGGGLVQEGGSLRLSCAPSSTISRDFYMGWYRQAPGKELEFVASITYGASTNYADSVKGRVTISRDNANNTVYLQMNSLKPEDTAVYYSNAKQQPYGGTDSDYWGQGTQVSVSS | low polyreactivity |
| QVQLVESGGGLVQAGGSLRLICAASGTFYYYAMGWYRQAHGNERELVAAISTSDTSTYYADSVKGRFTISRDNAKNTVYLQMNSLKPEDTAVYYCAADTYHNFDYWGQGTQVSVSS | low polyreactivity |
| QVQLVESGGVLVQAGGSLRLSCAASGSIFWPNSMGWYRQAPGKERELVAGISYSGGRTYYADSVKGRFTISRDNAKNTVYLQMNSLKPEDTAVYYCAALSRRDYNYWGQGTQVTVSS | high polyreactivity |

| Sequence | polyreactivity (PSR sort gate) |
| --- | --- |
| QVQLVESGGGLVQAGGSLRLSCAASGSIFGVYTLGWYRQAPGKERELVAAISGSGGSTSYADSVKGRFTISRDNAKNTVYLQMTSLKPEDTAGYYCATRFPNIPPYDSLGQGTQVTVSS | low polyreactivity |
| QVQLVESGGGLVQAGGSLRLSCAASGRIFAQYAMGWYRQAPGKERELVADISSGVRTYADSVKGRFTISRDNAKNTVYLQMNSLKPEDTAVYYCNAYYIIFTRNDYWGQGTQVTVSS | low polyreactivity |
| QVQLVESGGGLVQAGGSLRLSCAASGRIFSFNAMGWYRQAPGKERELVAGITYGGNTYYADSVKGRFTISRDNAKNTVYLQMNSLKPEDTAVYYCAAVRGGRHDYWGQGTQVTVSS | low polyreactivity |
| QVQLVESGGGLVQAGGSLRLSCAASGYIFPKNAMGGYRQAPGKERELVAAITGSGGSTYYADSVKGRFTISRDNAKNTVYLQMISLKPEDTAVYYCAKRSWFEYDYWGQGTQVTVSS | low polyreactivity |
| QVQLVESGGGLVQAGGSLRLSCAASGSTLRTNAMGWYRQAPGKERELVAAISSSAGSTYYADSVKGRFTISRDNAKNTVYLQMNSLKQEDTAVYYCAKQPGSAYGYWGQGTQVTVSS | high polyreactivity |
| QVQLVESGGGLVQAGGSLRLSCAASGRTFYKYAMGWYRQAPAKESELVAAISTRGTNTYYADSVKGRFTISRDYAKNTVYLQMKSLKPEDTAVYYCAAVTASPYSHDYWGQGTQVTVSS | high polyreactivity |
| QFQLLESWGGLVQAGGSLLFSCAASGSTFGYYAMGWYRKAPGKERELVAAISKSGGTTSYADSVKGRFTISRDNAKNTVYLQMISLKPEDTAVYYCSARSFRRGGLRGYDSWGQGTQVTVSS | high polyreactivity |
| HVQLVESGGGLVQAGGSLRLSCAASGSTFSSYAMGWYRQAPGQERELVAAITGGGANTYYADSVKGRFTISRDNAKNTVYLQMNSLKPEDTAVYYCNARSGYLHSKWTGYYWGQGTQVTVSS | low polyreactivity |
| QVQLVESGGGLVQAGGSLRLSCAASGFTFYSYAMGWYRQAPGKERELVAAISGGGGSTYYADSVKGRFTISRDNAKNTVYLQMNSLKPEDTAVYYCAKRPAYRGYGLGYYWGQGTQVTVSS | high polyreactivity |
| QVQLVESGGGLVQAGGSLRLSCAASGRIFGSYAMGWYRQAPGKERELVAAITTVGITYYADSVKGRFTISRDNAKNTVYLQMNSLKPEDTADYYCAAEYFDYPYWYDYWGQGTQVTVSS | high polyreactivity |
| QVQLVESGGGLVQAGGSLRLSCAASGFTFYKKTMGWYRQAPGKERELVAAISSSGSSTYYADAVKGRVTISRDNAKNTVYLQMNSLKPEDSAVEYCAAGRFAYHDDYWGQGTQVTVSS | high polyreactivity |
| QVQLVESGGGLVQAGGSLRLSCAAAARTFPYNAMGWYRQAPGQERELVATISRRTGTTYYADSVKGRFTISRDNAKNTVYLQMNSLKPEDTAVYFCAATGFGLRRLFRGDYWGQGTQVTVSS | high polyreactivity |
| QVQLVESGGGLVQAGGSLRLSCAASGRNLLYYGMGWYRQAPGKERELVAVISRGGSTYYADSVKGRFTISRDNAKNTVYLQMNSLKPEDTAVYYCAKRIYYGGVATKSLMDYWGQGTQVTVSS | high polyreactivity |
| QVQLVESGGGLVQAGGSLRLSCAASGSTLVVYAMGRYRQAPGIERELVAAISSIGGRPYYADSVKGRFTISRDNAKYTVYLQMNSLKPEDTAVYYCTALRYVVYFDDDYWGQGTQVTVSS | high polyreactivity |
| QVQLVESGIGLVQAGGSLRLSCAASGSTCDFYAMGWYRPAPGKERELVAAITSDGRTNYADSVKGRFTISRDNAKNTVYLQMNSLKPEDTAVYYCAVTYGYEYDYWGQGTQVTVSS | low polyreactivity |
| QVQLVESGGGLVQAGGSLRLICAASGRTFVPYAMGWYRQAPGKERELVAAINSGGSTYYADSVKGRFTSSRDNAKNTVYLQMNSLKPADTAVYDCAAEYWNSRFSYAYGYWGQGTQVTVSS | high polyreactivity |
| QVQLVESGGGLVQAGGSLRLSCAASGSILWENAKGWYRQAPGKERELVATISVSGGGTYYADSVKGRFTISRDNAKNTVYLQMNSLKPEDTAVYYCNARYGNESQGWEDYWGQGTQVTVSS | low polyreactivity |
| QVQLVESGGGLVQAGGSLRLSCAASGRIFGQYAMGWYRQAPGKERELVASIRSGGSTNYADSVKGRFTISRDNAKNTVYLQMNSLKPADSAVYYCNRRSGRTSRFHDYGYWGQGTQVTVSS | high polyreactivity |
| QVQLEESVGGLVQAGGSLRLSCAASVFIFYKKNMGLYRQAPGKERELVAAITDGDHTNYADSVKGRFTISRDNAKNTVYLQMNSLKPEDTAVYYCAADYAWNYAFGYWGQGTQVTVSS | low polyreactivity |
| QLQLVDSGGGVVQAGGSLRLSCAASGSTYAQYVMGWYRPATGKEKELVAAISLSGGSTYYAASVKGRFTISRDNAKNTVYLQMNSLKPVDTAVYYCSARGYGPGLYSSRQNEYYYWGQGTQVTVSS | high polyreactivity |
| QVQLVESGGGLVQAGGSLRLSCASSGSIFAYNTMGRYRQAPGKERELVAAITGRAGSTYYADSVKGRFTISRDNAKNTFYLQMNSLKPEDTAVYYCAAEYRFAFPLWLDYWGQGTQVTVSS | high polyreactivity |
